Experiments:
[1] = tested on: GFP-14-3-3β; assay: GFP-14-3-3β co-IP with LC-MS/MS, untreated GFP-14-3-3β versus GFP control (14-3-3 interactome); format: binding, human; settings: log2 difference; pairwise comparison untreated vs GFP, label-free quantification, 3 replicates each
[2] = tested on: GFP-14-3-3β and its binding proteins; assay: GFP-14-3-3β co-IP with LC-MS/MS label-free quantification, untreated versus PP1c-treated; parameters: species or system human; settings: log2 difference; pairwise comparison PP1 vs untreated, label-free quantification, 3 replicates each

B1: DHX36 (protein, UniProt Q9H2U1 1-1008, looked up)
ATP-dependent DNA/RNA …: MSYDYHQNWGRDGGPRSSGGGYGGGPAGGHGGNRGSGGGGGGGGGGRGGRGRHPGHLKGREIGMWYAKKQGQKNKEAERQERAVVHMDERREEQIVQLLNSVQAKNDKESEAQISWFAPEDHGYGTEVSTKNTPCSENKLDIQEKKLINQEKKMFRIRNRSYIDRDSEYLLQENEPDGTLDQKLLEDLQKKKNDLRYIEMQHFREKLPSYGMQKELVNLIDNHQVTVISGETGCGKTTQVTQFILDNYIERGKGSACRIVCTQPRRISAISVAERVAAERAESCGSGNSTGYQIRLQSRLPRKQGSILYCTTGIILQWLQSDPYLSSVSHIVLDEIHERNLQSDVLMTVVKDLLNFRSDLKVILMSATLNAEKFSEYFGNCPMIHIPGFTFPVVEYLLEDVIEKIRYVPEQKEHRSQFKRGFMQGHVNRQEKEEKEAIYKERWPDYVRELRRRYSASTVDVIEMMEDDKVDLNLIVALIRYIVLEEEDGAILVFLPGWDNISTLHDLLMSQVMFKSDKFLIIPLHSLMPTVNQTQVFKRTPPGVRKIVIATNIAETSITIDDVVYVIDGGKIKETHFDTQNNISTMSAEWVSKANAKQRKGRAGRVQPGHCYHLYNGLRASLLDDYQLPEILRTPLEELCLQIKILRLGGIAYFLSRLMDPPSNEAVLLSIRHLMELNALDKQEELTPLGVHLARLPVEPHIGKMILFGALFCCLDPVLTIAASLSFKDPFVIPLGKEKIADARRKELAKDTRSDHLTVVNAFEGWEEARRRGFRYEKDYCWEYFLSSNTLQMLHNMKGQFAEHLLGAGFVSSRNPKDPESNINSDNEKIIKAVICAGLYPKVAKIRLNLGKKRKMVKVYTKTDGLVAVHPKSVNVEQTDFHYNWLIYHLKMRTSSIYLYDCTEVSPYCLLFFGGDISIQKDNDQETIAVDEWIVFQSPARIAHLVKELRKELDILLQEKIESPHPVDWNDTKSRDCAVLSAIIDLIKTQEKATPRNFPPRFQDGYYS
For B1, the “Difference (log2), untreated vs GFP” value [1] was 0.06686 and the “Difference (log2), PP1 vs untreated” value [2] was 1.434.

B2: CCDC124 (protein, UniProt Q96CT7 1-223, looked up)
Coiled-coil domain-containing …: MPKKFQGENTKSAAARARRAEAKAAADAKKQKELEDAYWKDDDKHVMRKEQRKEEKEKRRLDQLERKKETQRLLEEEDSKLKGGKAPRVATSSKVTRAQIEDTLRRDHQLREAPDTAEKAKSHLEVPLEENVNRRVLEEGSVEARTIEDAIAVLSVAEEAADRHPERRMRAAFTAFEEAQLPRLKQENPNMRLSQLKQLLKKEWLRSPDNPMNQRAVPFNAPK
In the case of B2, the “Difference (log2), untreated vs GFP” value [1] is reported as 0.7429 and the “Difference (log2), PP1 vs untreated” value [2] is reported as 1.402.

B3: CKAP4 (protein, UniProt Q07065 1-602, looked up)
Cytoskeleton-associated …: MPSAKQRGSKGGHGAASPSEKGAHPSGGADDVAKKPPPAPQQPPPPPAPHPQQHPQQHPQNQAHGKGGHRGGGGGGGKSSSSSSASAAAAAAAASSSASCSRRLGRALNFLFYLALVAAAAFSGWCVHHVLEEVQQVRRSHQDFSRQREELGQGLQGVEQKVQSLQATFGTFESILRSSQHKQDLTEKAVKQGESEVSRISEVLQKLQNEILKDLSDGIHVVKDARERDFTSLENTVEERLTELTKSINDNIAIFTEVQKRSQKEINDMKAKVASLEESEGNKQDLKALKEAVKEIQTSAKSREWDMEALRSTLQTMESDIYTEVRELVSLKQEQQAFKEAADTERLALQALTEKLLRSEESVSRLPEEIRRLEEELRQLKSDSHGPKEDGGFRHSEAFEALQQKSQGLDSRLQHVEDGVLSMQVASARQTESLESLLSKSQEHEQRLAALQGRLEGLGSSEADQDGLASTVRSLGETQLVLYGDVEELKRSVGELPSTVESLQKVQEQVHTLLSQDQAQAARLPPQDFLDRLSSLDNLKASVSQVEADLKMLRTAVDSLVAYSVKIETNENNLESAKGLLDDLRNDLDRLFVKVEKIHEKV
For B3, the “Difference (log2), untreated vs GFP” value [1] was -0.6332 and the “Difference (log2), PP1 vs untreated” value [2] was 1.432.

B4: EIF5B (protein, UniProt O60841 1-1220, looked up)
Eukaryotic translation …: MGKKQKNKSEDSTKDDIDLDALAAEIEGAGAAKEQEPQKSKGKKKKEKKKQDFDEDDILKELEELSLEAQGIKADRETVAVKPTENNEEEFTSKDKKKKGQKGKKQSFDDNDSEELEDKDSKSKKTAKPKVEMYSGSDDDDDFNKLPKKAKGKAQKSNKKWDGSEEDEDNSKKIKERSRINSSGESGDESDEFLQSRKGQKKNQKNKPGPNIESGNEDDDASFKIKTVAQKKAEKKERERKKRDEEKAKLRKLKEKEELETGKKDQSKQKESQRKFEEETVKSKVTVDTGVIPASEEKAETPTAAEDDNEGDKKKKDKKKKKGEKEEKEKEKKKGPSKATVKAMQEALAKLKEEEERQKREEEERIKRLEELEAKRKEEERLEQEKRERKKQKEKERKERLKKEGKLLTKSQREARARAEATLKLLQAQGVEVPSKDSLPKKRPIYEDKKRKKIPQQLESKEVSESMELCAAVEVMEQGVPEKEETPPPVEPEEEEDTEDAGLDDWEAMASDEETEKVEGNKVHIEVKENPEEEEEEEEEEEEDEESEEEEEEEGESEGSEGDEEDEKVSDEKDSGKTLDKKPSKEMSSDSEYDSDDDRTKEERAYDKAKRRIEKRRLEHSKNVNTEKLRAPIICVLGHVDTGKTKILDKLRHTHVQDGEAGGITQQIGATNVPLEAINEQTKMIKNFDRENVRIPGMLIIDTPGHESFSNLRNRGSSLCDIAILVVDIMHGLEPQTIESINLLKSKKCPFIVALNKIDRLYDWKKSPDSDVAATLKKQKKNTKDEFEERAKAIIVEFAQQGLNAALFYENKDPRTFVSLVPTSAHTGDGMGSLIYLLVELTQTMLSKRLAHCEELRAQVMEVKALPGMGTTIDVILINGRLKEGDTIIVPGVEGPIVTQIRGLLLPPPMKELRVKNQYEKHKEVEAAQGVKILGKDLEKTLAGLPLLVAYKEDEIPVLKDELIHELKQTLNAIKLEEKGVYVQASTLGSLEALLEFLKTSEVPYAGINIGPVHKKDVMKASVMLEHDPQYAVILAFDVRIERDAQEMADSLGVRIFSAEIIYHLFDAFTKYRQDYKKQKQEEFKHIAVFPCKIKILPQYIFNSRDPIVMGVTVEAGQVKQGTPMCVPSKNFVDIGIVTSIEINHKQVDVAKKGQEVCVKIEPIPGESPKMFGRHFEATDILVSKISRQSIDALKDWFRDEMQKSDWQLIVELKKVFEII
With B4 the “Difference (log2), untreated vs GFP” value [1] was 0.212 and the “Difference (log2), PP1 vs untreated” value [2] was 1.436.

B5: FAM83H (protein, UniProt Q6ZRV2 1-1179, looked up)
Protein FAM83H: MARRSQSSSQGDNPLAPGYLPPHYKEYYRLAVDALAEGGSEAYSRFLATEGAPDFLCPEELEHVSRHLRPPQYVTREPPEGSLLDVDMDGSSGTYWPVNSDQAVPELDLGWPLTFGFQGTEVTTLVQPPPPDSPSIKDEARRMIRSAQQVVAVVMDMFTDVDLLSEVLEAAARRVPVYILLDEMNAQHFLDMADKCRVNLQHVDFLRVRTVAGPTYYCRTGKSFKGHVKEKFLLVDCAVVMSGSYSFMWSFEKIHRSLAHVFQGELVSSFDEEFRILFAQSEPLVPSAAALARMDAYALAPYAGAGPLVGVPGVGAPTPFSFPKRAHLLFPPPREEGLGFPSFLDPDRHFLSAFRREEPPRMPGGALEPHAGLRPLSRRLEAEAGPAGELAGARGFFQARHLEMDAFKRHSFATEGAGAVENFAAARQVSRQTFLSHGDDFRFQTSHFHRDQLYQQQYQWDPQLTPARPQGLFEKLRGGRAGFADPDDFTLGAGPRFPELGPDGHQRLDYVPSSASREVRHGSDPAFAPGPRGLEPSGAPRPNLTQRFPCQAAARPGPDPAPEAEPERRGGPEGRAGLRRWRLASYLSGCHGEDGGDDGLPAPMEAEAYEDDVLAPGGRAPAGDLLPSAFRVPAAFPTKVPVPGPGSGGNGPEREGPEEPGLAKQDSFRSRLNPLVQRSSRLRSSLIFSTSQAEGAAGAAAATEKVQLLHKEQTVSETLGPGGEAVRSAASTKVAELLEKYKGPARDPGGGAGAITVASHSKAVVSQAWREEVAAPGAVGGERRSLESCLLDLRDSFAQQLHQEAERQPGAASLTAAQLLDTLGRSGSDRLPSRFLSAQSHSTSPQGLDSPLPLEGSGAHQVLHNESKGSPTSAYPERKGSPTPGFSTRRGSPTTGFIEQKGSPTSAYPERRGSPVPPVPERRSSPVPPVPERRGSLTLTISGESPKAGPAEEGPSGPMEVLRKGSLRLRQLLSPKGERRMEDEGGFPVPQENGQPESPRRLSLGQGDSTEAATEERGPRARLSSATANALYSSNLRDDTKAILEQISAHGQKHRAVPAPSPGPTHNSPELGRPPAAGVLAPDMSDKDKCSAIFRSDSLGTQGRLSRTLPASAEERDRLLRRMESMRKEKRVYSRFEVFCKKEEASSPGAGEGPAEEGTRDSKVGKFVPKILGTFKSKK
B5 was tested, and the “Difference (log2), untreated vs GFP” value [1] was -1.013 and the “Difference (log2), PP1 vs untreated” value [2] was 1.455.

B6: SRPK1 (protein, UniProt Q96SB4 1-655, looked up)
SRSF protein kinase 1: MERKVLALQARKKRTKAKKDKAQRKSETQHRGSAPHSESDLPEQEEEILGSDDDEQEDPNDYCKGGYHLVKIGDLFNGRYHVIRKLGWGHFSTVWLSWDIQGKKFVAMKVVKSAEHYTETALDEIRLLKSVRNSDPNDPNREMVVQLLDDFKISGVNGTHICMVFEVLGHHLLKWIIKSNYQGLPLPCVKKIIQQVLQGLDYLHTKCRIIHTDIKPENILLSVNEQYIRRLAAEATEWQRSGAPPPSGSAVSTAPQPKPADKMSKNKKKKLKKKQKRQAELLEKRMQEIEEMEKESGPGQKRPNKQEESESPVERPLKENPPNKMTQEKLEESSTIGQDQTLMERDTEGGAAEINCNGVIEVINYTQNSNNETLRHKEDLHNANDCDVQNLNQESSFLSSQNGDSSTSQETDSCTPITSEVSDTMVCQSSSTVGQSFSEQHISQLQESIRAEIPCEDEQEQEHNGPLDNKGKSTAGNFLVNPLEPKNAEKLKVKIADLGNACWVHKHFTEDIQTRQYRSLEVLIGSGYNTPADIWSTACMAFELATGDYLFEPHSGEEYTRDEDHIALIIELLGKVPRKLIVAGKYSKEFFTKKGDLKHITKLKPWGLFEVLVEKYEWSQEEAAGFTDFLLPMLELIPEKRATAAECLRHPWLNS
For B6, the “Difference (log2), untreated vs GFP” value [1] was 0.8168 and the “Difference (log2), PP1 vs untreated” value [2] was 1.464.

B7: SLC25A13 (protein, UniProt Q9UJS0 2-675, looked up)
Electrogenic …: AAAKVALTKRADPAELRTIFLKYASIEKNGEFFMSPNDFVTRYLNIFGESQPNPKTVELLSGVVDQTKDGLISFQEFVAFESVLCAPDALFMVAFQLFDKAGKGEVTFEDVKQVFGQTTIHQHIPFNWDSEFVQLHFGKERKRHLTYAEFTQFLLEIQLEHAKQAFVQRDNARTGRVTAIDFRDIMVTIRPHVLTPFVEECLVAAAGGTTSHQVSFSYFNGFNSLLNNMELIRKIYSTLAGTRKDVEVTKEEFVLAAQKFGQVTPMEVDILFQLADLYEPRGRMTLADIERIAPLEEGTLPFNLAEAQRQKASGDSARPVLLQVAESAYRFGLGSVAGAVGATAVYPIDLVKTRMQNQRSTGSFVGELMYKNSFDCFKKVLRYEGFFGLYRGLLPQLLGVAPEKAIKLTVNDFVRDKFMHKDGSVPLAAEILAGGCAGGSQVIFTNPLEIVKIRLQVAGEITTGPRVSALSVVRDLGFFGIYKGAKACFLRDIPFSAIYFPCYAHVKASFANEDGQVSPGSLLLAGAIAGMPAASLVTPADVIKTRLQVAARAGQTTYSGVIDCFRKILREEGPKALWKGAGARVFRSSPQFGVTLLTYELLQRWFYIDFGGVKPMGSEPVPKSRINLPAPNPDHVGGYKLAVATFAGIENKFGLYLPLFKPSVSTSKAIGGGP
For B7, the “Difference (log2), untreated vs GFP” value [1] was 0.4406 and the “Difference (log2), PP1 vs untreated” value [2] was 1.412.

Source: publication PMC7367873, “Dissecting the sequence determinants for dephosphorylation by the catalytic subunits of phosphatases PP1 and PP2A” (Nature Communications, 2020)
